Laboratory results as given in the supplement of paper PMC5998384.

Key:
HeLa Kyoto [1] = experiment: thermal stability score vs G1/S (z-score of summed log2 fold changes over temperatures); higher = more thermally stable than in G1/S
HeLa Kyoto [2] = experiment: melting temperature (median over replicates), in situ; higher = more thermally stable
[3] = cell cycle stage: early G1 (4.5 h after nocodazole release)
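Wherever melting temperature (median over replicates), in situ is given: HeLa Kyoto cells synchronized by double thymidine or nocodazole block, proteins quantified by TMT10plex mass spectrometry, three independent biological replicates.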
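Wherever thermal stability score vs G1/S (z-score of summed log2 fold changes over temperatures) is given: synchronized HeLa Kyoto cells, proteins quantified by TMT10plex mass spectrometry, three biological replicates, mitosis taken 0.5 h after nocodazole release, G1/S directly after double thymidine block.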

| Sequence | thermal stability score (HeLa Kyoto [1]; [3]) | thermal stability score (HeLa Kyoto [1]; cell cycle stage: mitosis) | melting temperature (HeLa Kyoto [2]; cell cycle stage: G1/S) | melting temperature (HeLa Kyoto [2]; cell cycle stage: mitosis) |
| --- | --- | --- | --- | --- |
| MEKWYLMTVVVLIGLTVRWTVSLNSYSGAGKPPMFGDYEAQRHWQEITFNLPVKQWYFNSSDNNLQYWGLDYPPLTAYHSLLCAYVAKFINPDWIALHTSRGYESQAHKLFMRTTVLIADLLIYIPAVVLYCCCLKEISTKKKIANALCILLYPGLILIDYGHFQYNSVSLGFALWGVLGISCDCDLLGSLAFCLAINYKQMELYHALPFFCFLLGKCFKKGLKGKGFVLLVKLACIVVASFVLCWLPFFTEREQTLQVLRRLFPVDRGLFEDKVANIWCSFNVFLKIKDILPRHIQLIMSFCSTFLSLLPACIKLILQPSSKGFKFTLVSCALSFFLFSFQVHEKSILLVSLPVCLVLSEIPFMSTWFLLVSTFSMLPLLLKDELLMPSVVTTMAFFIACVTSFSIFEKTSEEELQLKSFSISVRKYLPCFTFLSRIIQYLFLISVITMVLLTLMTVTLDPPQKLPDLFSVLVCFVSCLNFLFFLVYFNIIIMWDSKSGRNQKKIS [ALG6] | 0.428 | -1.17 | 54.2 °C | 54.3 °C |
| MLCRLGGRWLRPLPALQLWARDLPLAPVPTSGAKRPTLPVWAVAPVSAVHANGWYEALAASSPVRVAEEVLLGVHAATGLPWWGSILLSTVALRGAVTLPLAAYQHYILAKVENLQPEIKTIARHLNQEVAVRANQLGWSKRDARLTYLKNMRRLISELYVRDNCHPFKATVLVWIQLPMWIFMSFALRNLSTGAAHSEGFSVQEQLATGGILWFPDLTAPDSTWILPISVGVINLLIVEICALQKIGMSRFQTYITYFVRAMSVLMIPIAATVPSSIVLYWLCSSFVGLSQNLLLRSPGFRQLCRIPSTKSDSETPYKDIFAAFNTKFISRK [COX18] | 0.867 | -0.575 |  | 57.1 °C |
| MMKLKSNQTRTYDGDGYKKRAACLCFRSESEEEVLLVSSSRHPDRWIVPGGGMEPEEEPSVAAVREVCEEAGVKGTLGRLVGIFENQERKHRTYVYVLIVTEVLEDWEDSVNIGRKREWFKIEDAIKVLQYHKPVQASYFETLRQGYSANNGTPVVATTYSVSAQSSMSGIR [NUDT3] | -1.86 | -1.36 | 53.4 °C | 54.7 °C |
| MAAPAGGGGSAVSVLAPNGRRHTVKVTPSTVLLQVLEDTCRRQDFNPCEYDLKFQRSVLDLSLQWRFANLPNNAKLEMVPASRSREGPENMVRIALQLDDGSRLQDSFCSGQTLWELLSHFPQIRECLQHPGGATPVCVYTRDEVTGEAALRGTTLQSLGLTGGSATIRFVMKCYDPVGKTPGSLGSSASAGQAAASAPLPLESGELSRGDLSRPEDADTSGPCCEHTQEKQSTRAPAAAPFVPFSGGGQRLGGPPGPTRPLTSSSAKLPKSLSSPGGPSKPKKSKSGQDPQQEQEQERERDPQQEQERERPVDREPVDREPVVCHPDLEERLQAWPAELPDEFFELTVDDVRRRLAQLKSERKRLEEAPLVTKAFREAQIKEKLERYPKVALRVLFPDRYVLQGFFRPSETVGDLRDFVRSHLGNPELSFYLFITPPKTVLDDHTQTLFQANLFPAALVHLGAEEPAGVYLEPGLLEHAISPSAADVLVARYMSRAAGSPSPLPAPDPAPKSEPAAEEGALVPPEPIPGTAQPVKRSLGKVPKWLKLPASKR [ASPSCR1] | -0.292 | -0.934 | 52.2 °C |  |
| METLYRVPFLVLECPNLKLKKPPWLHMPSAMTVYALVVVSYFLITGGIIYDVIVEPPSVGSMTDEHGHQRPVAFLAYRVNGQYIMEGLASSFLFTMGGLGFIILDRSNAPNIPKLNRFLLLFIGFVCVLLSFFMARVFMRMKLPGYLMG [OSTC] | 0.174 | 0.407 |  | 54.8 °C |
